Results published in PMC10239968, “[^18F]AlF-NOTA-ADH-1: A new PET molecular radiotracer for imaging of N-cadherin-positive tumors” (Frontiers in Oncology, 2023).

Experiment: in vivo
Parameters: species or system Kunming mice
Details: mouse; for tissue uptake at 2 min / tissue uptake at 5 min / tissue uptake at 0.25 h / tissue uptake at 0.5 h / tissue uptake at 1 h / tissue uptake at 2 h: Kunming, total radioactivity
Experimental: Thirty SPF Kunming mice weighing 18-20g were randomly divided into 6 groups (n=5). As described above, [^18F]AlF-NOTA-ADH-1 was purified and separated by HPLC analysis. Each mouse was injected with a dose of 0.74MBq (20μCi) through a caudal vein. Blood was collected from the orbit, the mice were sacrificed, and the brain, heart, lung, liver, spleen, kidney, stomach, intestine, muscle, bone and other organs were taken at 2 min, 5 min, 15 min, 30 min, 60min and 120min after injection. The radioactivity results were recorded as injected radioactivity per gram of tissue (% ID/g) corrected for background and decay.

[1] = iv, 0.74 MBq (20 uCi) per mouse, Blood radioactive concentration
[2] = iv, 0.74 MBq (20 uCi) per mouse, Bone uptake
[3] = iv, 0.74 MBq (20 uCi) per mouse, Brain uptake
[4] = iv, 0.74 MBq (20 uCi) per mouse, Intestines uptake
[5] = iv, 0.74 MBq (20 uCi) per mouse, Muscle uptake
[6] = iv, 0.74 MBq (20 uCi) per mouse, Skin uptake

`CC(=O)N[C@H]1CSSC[C@@H](C(=O)NCCNC(=O)CN2CCN(CC(=O)O)CCN(CC(=O)O)CC2)NC(=O)[C@H](C(C)C)NC(=O)[C@H](C)NC(=O)[C@H](Cc2c[nH]cn2)NC1=O` [[^18F]AlF-NOTA-ADH-1] gave a tissue uptake at 2 min [1] of 18.8 ± 1.95 %ID/g, a tissue uptake at 5 min [1] of 8.77 ± 1.37 %ID/g and a tissue uptake at 0.25 h [1] of 3.79 ± 1.19 %ID/g. It also gave a tissue uptake at 0.5 h [1] of 2.28 ± 0.81 %ID/g, a tissue uptake at 1 h [1] of 2.15 ± 0.18 %ID/g and a tissue uptake at 2 h [1] of 1.04 ± 0.36 %ID/g. It also gave a tissue uptake at 2 min [2] of 5.3 ± 0.94 %ID/g, a tissue uptake at 5 min [2] of 6.71 ± 0.62 %ID/g and a tissue uptake at 0.25 h [2] of 3.72 ± 0.29 %ID/g. It also gave a tissue uptake at 0.5 h [2] of 3.09 ± 0.26 %ID/g, a tissue uptake at 1 h [2] of 1.51 ± 0.36 %ID/g and a tissue uptake at 2 h [2] of 1.38 ± 0.73 %ID/g. The tissue uptake at 2 min [3] was 1.05 ± 0.25 %ID/g, the tissue uptake at 5 min [3] was 0.87 ± 0.3 %ID/g and the tissue uptake at 0.25 h [3] was 0.46 ± 0.1 %ID/g. For the same compound, the tissue uptake at 0.5 h [3] was 0.39 ± 0.1 %ID/g, the tissue uptake at 1 h [3] was 0.22 ± 0.05 %ID/g and the tissue uptake at 2 h [3] was 0.58 ± 0.68 %ID/g. It also gave a tissue uptake at 2 min (iv, 0.74 MBq (20 uCi) per mouse, Heart uptake) of 9.15 ± 0.91 %ID/g, a tissue uptake at 2 min [4] of 5.39 ± 0.84 %ID/g and a tissue uptake at 5 min [4] of 6.06 ± 1.42 %ID/g. The tissue uptake at 0.25 h [4] was 5.73 ± 0.64 %ID/g, the tissue uptake at 0.5 h [4] was 6.28 ± 0.59 %ID/g and the tissue uptake at 1 h [4] was 5.27 ± 1.09 %ID/g. The tissue uptake at 2 h [4] was 4.18 ± 0.53 %ID/g, the tissue uptake at 2 min [5] was 3.97 ± 0.56 %ID/g and the tissue uptake at 5 min [5] was 5.91 ± 1.16 %ID/g. The tissue uptake at 0.25 h [5] was 2.79 ± 0.68 %ID/g, the tissue uptake at 0.5 h [5] was 3.32 ± 1.77 %ID/g and the tissue uptake at 1 h [5] was 1.08 ± 0.21 %ID/g. The tissue uptake at 2 h [5] was 1.22 ± 0.7 %ID/g, the tissue uptake at 2 min [6] was 5.6 ± 0.85 %ID/g and the tissue uptake at 5 min [6] was 5.08 ± 2.74 %ID/g. For the same compound, the tissue uptake at 0.25 h [6] was 3.11 ± 1.47 %ID/g, the tissue uptake at 0.5 h [6] was 2.59 ± 0.96 %ID/g and the tissue uptake at 1 h [6] was 1.85 ± 1.48 %ID/g. For the same compound, the tissue uptake at 2 h [6] was 1.1 ± 0.96 %ID/g, the tissue uptake at 5 min (iv, 0.74 MBq, Heart uptake) was 7.54 ± 2.08 %ID/g and the tissue uptake at 0.25 h (iv, 0.74 MBq, Heart uptake) was 3.57 ± 0.82 %ID/g. It also gave a tissue uptake at 0.5 h (iv, 0.74 MBq, Heart uptake) of 3.64 ± 0.66 %ID/g, a tissue uptake at 1 h (iv, 0.74 MBq, Heart uptake) of 1.19 ± 0.7 %ID/g and a tissue uptake at 2 h (iv, 0.74 MBq, Heart uptake) of 1.01 ± 0.15 %ID/g. For the same compound, the tissue uptake at 2 min (iv, 0.74 MBq, Kidney uptake) was 24.9 ± 1.12 %ID/g, the tissue uptake at 5 min (iv, 0.74 MBq, Kidney uptake) was 36.5 ± 2 %ID/g and the tissue uptake at 0.25 h (iv, 0.74 MBq, Kidney uptake) was 22.1 ± 1.43 %ID/g. For the same compound, the tissue uptake at 0.5 h (iv, 0.74 MBq, Kidney uptake) was 25.7 ± 1.17 %ID/g, the tissue uptake at 1 h (iv, 0.74 MBq, Kidney uptake) was 22.2 ± 1.92 %ID/g and the tissue uptake at 2 h (iv, 0.74 MBq, Kidney uptake) was 15.2 ± 0.96 %ID/g. The tissue uptake at 2 min (iv, 0.74 MBq, Liver uptake) was 8.01 ± 1.26 %ID/g, the tissue uptake at 5 min (iv, 0.74 MBq, Liver uptake) was 7.09 ± 2.03 %ID/g and the tissue uptake at 0.25 h (iv, 0.74 MBq, Liver uptake) was 14.8 ± 1.11 %ID/g. It also gave a tissue uptake at 0.5 h (iv, 0.74 MBq, Liver uptake) of 16.1 ± 2.34 %ID/g, a tissue uptake at 1 h (iv, 0.74 MBq, Liver uptake) of 21.6 ± 3.53 %ID/g and a tissue uptake at 2 h (iv, 0.74 MBq, Liver uptake) of 13.7 ± 2.35 %ID/g. It also gave a tissue uptake at 2 min (iv, 0.74 MBq, Lung uptake) of 6.26 ± 1.29 %ID/g, a tissue uptake at 5 min (iv, 0.74 MBq, Lung uptake) of 4.74 ± 1.69 %ID/g and a tissue uptake at 0.25 h (iv, 0.74 MBq, Lung uptake) of 3.05 ± 0.4 %ID/g. The tissue uptake at 0.5 h (iv, 0.74 MBq, Lung uptake) was 2.15 ± 0.27 %ID/g, the tissue uptake at 1 h (iv, 0.74 MBq, Lung uptake) was 2.19 ± 0.42 %ID/g and the tissue uptake at 2 h (iv, 0.74 MBq, Lung uptake) was 1.62 ± 0.35 %ID/g. It also gave a tissue uptake at 2 min (iv, 0.74 MBq, Spleen uptake) of 3.84 ± 1.47 %ID/g, a tissue uptake at 5 min (iv, 0.74 MBq, Spleen uptake) of 5.09 ± 1.29 %ID/g and a tissue uptake at 0.25 h (iv, 0.74 MBq, Spleen uptake) of 3.08 ± 0.55 %ID/g. It also gave a tissue uptake at 0.5 h (iv, 0.74 MBq, Spleen uptake) of 2.66 ± 0.22 %ID/g, a tissue uptake at 1 h (iv, 0.74 MBq, Spleen uptake) of 1.81 ± 0.57 %ID/g and a tissue uptake at 2 h (iv, 0.74 MBq, Spleen uptake) of 1.24 ± 0.3 %ID/g. The tissue uptake at 2 min (iv, 0.74 MBq, Stomach uptake) was 5.63 ± 1.98 %ID/g, the tissue uptake at 5 min (iv, 0.74 MBq, Stomach uptake) was 7.27 ± 1.89 %ID/g and the tissue uptake at 0.25 h (iv, 0.74 MBq, Stomach uptake) was 4.26 ± 0.55 %ID/g. The tissue uptake at 0.5 h (iv, 0.74 MBq, Stomach uptake) was 4.78 ± 0.98 %ID/g, the tissue uptake at 1 h (iv, 0.74 MBq, Stomach uptake) was 2.32 ± 0.56 %ID/g and the tissue uptake at 2 h (iv, 0.74 MBq, Stomach uptake) was 1.55 ± 0.2 %ID/g. For the same compound, the “In vivo defluorination (bone uptake)” value was “no obvious in vivo defluorination” and the Blood clearance (iv) was “rapid blood clearance”.
